Test results published in US20210147523A1 (TEIJIN PHARMA, published 2021).

B1: 82-1109A (antibody, IgG2b, V domains shown)
VH: QVQLQQSGVELAKPGSSVKISCKASGNTFTSNYITWIKQTPGQGLEYIGYINTGSGKTYYNEKFKGKATLTADKSSSTAFMQLSSLTPDDSAVYFCASLTGVDYFDDWGQGVMVTVSS
VL: DDIVLTQSPALAPSLGQRATISCRASQSVRMSGYNLMHWYQQKPGQQPKLLIYDASKLASGIPARFSGSGSGTDFTLTIDPVQSDDIATYYCQQSKDDPYTFGAGTKLELRR
B2: 49-0703G (antibody, IgG2b, V domains shown)
VH: EVQLVESGGGLVQPGRSMKLSCAASGFTFSNHYMAWVRQAPTKGLEWVASISTGGGNTYYRDSVKGRFTISRDNAKSTLYLQMDSLRSEDTATYYCARQDYSNYMGGFAYWGQGTLVTVSS
VL: QFVLTQPNSVSTNLGSTVKLSCKRSTGNIGNNYVNWYQQYEGRSPTTMIYRDDERPDGVPDRFSGSIDRSSNSALLTINNVQTEDEADYFCQSFSNGMFIFAGGTQLTVL
B3: 33-0503E (antibody, IgG2b, V domains shown)
VH: EVQLVESGGGLVRPGGSMKLSCGASGFIFDNYYMTWVRQAPTKGLEWVASISSSGGNTYYRDSVRGRFTISRDNAGNTLSLQMGSLRAEDTATYHCAKEGYRGRYFDYWGQGVMVTVSS
VL: QVVLTQPNSVSTNLGSTVKLSCKRTTGNIGSNYVNWYQQHEGRSPTTMIYRDDERPDGVPDRFSGSIDRSSNSALLTINNVQTEDEAEYFCQSYSSGIIFGGGTKLTVL
B4: 94-1311E (antibody, V domains shown)
VH: EVQLQQSGAGLVRPRTSVRLSCKISGDSITAYYVHFVKQRPGQGLEWIGRIDPEDDSTKYSEKFKNKATLTADVSSSTAYLILSSLTSDDSATYFCSTLTGLDYWGQGVMVTVSS
VL: DIQMTQSPPVLSASVGDRVTLSCKASQSVHNKLDWYQQKHGEAPKLLIYYTHNLQTGIPSRFSGSGSGSDYTLTISSLRAEDVATYYCFQYYSGWTFGGGTKLEMKR

Legend:
Experiment in all cases: flow cytometry, FLAG-insertion mutant
[1] = molecular target: T1, Mutant 4 of human SPNS2 (FLAG tag inserted in extracellular loop 11) (human, UniProt Q8IVW8 1-549)
T1 construct: on HEK293 cells; also called extracellular loop 11 mutant
T1 sequence: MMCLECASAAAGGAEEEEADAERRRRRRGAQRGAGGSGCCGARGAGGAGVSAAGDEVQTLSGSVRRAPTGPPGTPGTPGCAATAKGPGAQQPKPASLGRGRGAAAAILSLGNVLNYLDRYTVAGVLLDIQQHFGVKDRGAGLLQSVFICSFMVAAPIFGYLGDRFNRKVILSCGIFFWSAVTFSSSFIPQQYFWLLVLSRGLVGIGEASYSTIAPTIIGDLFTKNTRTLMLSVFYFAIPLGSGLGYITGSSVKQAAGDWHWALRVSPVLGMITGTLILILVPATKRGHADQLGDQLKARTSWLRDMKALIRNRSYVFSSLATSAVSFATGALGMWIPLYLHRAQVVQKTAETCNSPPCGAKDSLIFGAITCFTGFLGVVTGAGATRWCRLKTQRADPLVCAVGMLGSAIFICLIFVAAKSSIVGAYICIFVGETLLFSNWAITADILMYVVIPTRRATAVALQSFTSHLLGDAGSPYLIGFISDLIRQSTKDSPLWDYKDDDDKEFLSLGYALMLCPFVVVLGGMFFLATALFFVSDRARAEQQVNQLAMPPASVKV
Procedure: (§1) After the lipofection, the HEK 293 cells cultivated overnight were recovered from the culture dishes, and reacted with a cell staining buffer (BioLegend, 420201) containing an anti-FLAG antibody (Sigma-Aldrich, F1804) and an anti-SPNS2 antibody each in a volume of 20 μg/mL for 30 minutes at room temperature. After washing with a cell staining buffer one time, the anti-FLAG antibody was detected with an anti-mouse IgG-Alexa 647 conjugate antibody, and the anti-SPNS2 antibody was detected with an anti-rat IgG-FITC conjugate antibody with flow cytometer BD LSR Fortessa (Becton Dickinson). The binding ability to each mutant was evaluated with the ratio of the FITC-positive cell rate to the Alexa 647-positive cell rate. In Table 7, symbol (+) indicates a ratio of less than 0.1, symbol (±) indicates a ratio of 0.1 or more and less than 0.5, and symbol (−) indicate a ratio of 0.5 or more.

[2] = molecular target: T2, Mutant 1 of human SPNS2 (FLAG tag inserted in extracellular loop 1) (human, UniProt Q8IVW8 1-549)
T2 construct: on HEK293 cells; also called extracellular loop 1 mutant
T2 sequence: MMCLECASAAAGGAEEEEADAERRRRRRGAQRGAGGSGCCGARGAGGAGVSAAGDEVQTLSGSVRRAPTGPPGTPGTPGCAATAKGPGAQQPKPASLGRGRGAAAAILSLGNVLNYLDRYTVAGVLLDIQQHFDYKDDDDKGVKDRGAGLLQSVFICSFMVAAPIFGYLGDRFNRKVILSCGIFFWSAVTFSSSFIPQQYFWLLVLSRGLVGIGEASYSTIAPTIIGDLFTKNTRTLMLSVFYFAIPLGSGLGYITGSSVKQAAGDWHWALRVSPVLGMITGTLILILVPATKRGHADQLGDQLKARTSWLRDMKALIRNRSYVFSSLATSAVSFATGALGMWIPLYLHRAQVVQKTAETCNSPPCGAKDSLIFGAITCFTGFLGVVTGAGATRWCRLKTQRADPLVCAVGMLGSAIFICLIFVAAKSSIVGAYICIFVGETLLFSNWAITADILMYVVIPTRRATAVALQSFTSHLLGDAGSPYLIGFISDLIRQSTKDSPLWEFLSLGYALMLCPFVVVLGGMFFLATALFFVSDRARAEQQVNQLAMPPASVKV
Procedure: as §1

[3] = molecular target: T3, Mutant 2 of human SPNS2 (FLAG tag inserted in extracellular loop 5) (human, UniProt Q8IVW8 1-549)
T3 construct: on HEK293 cells; also called extracellular loop 5 mutant
T3 sequence: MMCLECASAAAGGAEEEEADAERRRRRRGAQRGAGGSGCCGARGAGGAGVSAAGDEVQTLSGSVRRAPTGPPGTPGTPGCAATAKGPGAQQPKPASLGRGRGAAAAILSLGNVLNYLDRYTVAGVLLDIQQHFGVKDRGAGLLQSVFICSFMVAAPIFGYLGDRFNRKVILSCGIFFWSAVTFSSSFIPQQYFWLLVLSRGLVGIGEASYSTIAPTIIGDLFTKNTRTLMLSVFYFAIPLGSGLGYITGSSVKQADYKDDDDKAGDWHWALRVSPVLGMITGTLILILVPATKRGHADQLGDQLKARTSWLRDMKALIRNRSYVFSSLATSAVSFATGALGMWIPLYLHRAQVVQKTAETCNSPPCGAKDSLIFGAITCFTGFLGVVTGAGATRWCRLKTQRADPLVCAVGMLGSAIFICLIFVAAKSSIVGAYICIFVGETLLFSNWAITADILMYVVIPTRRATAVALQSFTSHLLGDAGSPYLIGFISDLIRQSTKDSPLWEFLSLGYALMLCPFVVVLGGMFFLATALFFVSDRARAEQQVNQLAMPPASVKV
Procedure: as §1

[4] = molecular target: T4, Mutant 3 of human SPNS2 (FLAG tag inserted in extracellular loop 7) (human, UniProt Q8IVW8 1-549)
T4 construct: on HEK293 cells; also called extracellular loop 7 mutant
T4 sequence: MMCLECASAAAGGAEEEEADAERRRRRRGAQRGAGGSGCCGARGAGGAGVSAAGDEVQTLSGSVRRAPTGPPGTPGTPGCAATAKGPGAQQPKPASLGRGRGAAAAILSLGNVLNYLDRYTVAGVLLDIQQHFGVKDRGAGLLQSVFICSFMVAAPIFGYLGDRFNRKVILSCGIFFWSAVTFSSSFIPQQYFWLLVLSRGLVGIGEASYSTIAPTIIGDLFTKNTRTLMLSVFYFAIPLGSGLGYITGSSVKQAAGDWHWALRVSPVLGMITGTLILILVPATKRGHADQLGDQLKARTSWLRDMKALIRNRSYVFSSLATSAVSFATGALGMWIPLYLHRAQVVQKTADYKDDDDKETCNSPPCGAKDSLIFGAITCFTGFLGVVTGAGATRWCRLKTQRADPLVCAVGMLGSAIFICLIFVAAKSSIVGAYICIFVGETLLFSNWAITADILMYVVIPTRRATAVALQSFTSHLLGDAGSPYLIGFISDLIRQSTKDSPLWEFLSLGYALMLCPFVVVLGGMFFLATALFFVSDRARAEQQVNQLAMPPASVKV
Procedure: as §1

Binder | FITC+/Alexa 647+ cell rate ratio [1] [ratio] | FITC+/Alexa 647+ cell rate ratio [2] [ratio] | FITC+/Alexa 647+ cell rate ratio [3] [ratio] | FITC+/Alexa 647+ cell rate ratio [4] [ratio]
B1 | < 0.1 | ≥ 0.5 | ≥ 0.5 | < 0.1
B2 | ≥ 0.5 | < 0.1 | < 0.1 | ≥ 0.5
B3 | ≥ 0.5 | < 0.1 | < 0.1 | ≥ 0.5
B4 | ≥ 0.5 | < 0.1 | < 0.1 | ≥ 0.5
